The record followed here is PMC11784390, “Conformational changes in and translocation of small proteins: insights into the ejection mechanism of podophages” (Journal of Virology, 2024).

Usually stoichiometry N stands for the number of molecules, sites or subunits per partner or assembly.

Data set [1] concerns the molecule itself. In words: cryo-EM structure; mature T7 virions, in situ; entire particle asymmetric 6.1 Å; local reconstructions of core complex 3 Å (four-fold), portal 2.5 Å (twelve-fold), portal–tail complex 2.7 Å (six-fold).
The target of data set [2] is T1, core protein gp16 (bacteriophage T7, UniProt P03726 1-1318).
T1 construct: core protein gp16 of bacteriophage T7, as it stands in the mature virion; Four-fold ring in the core of mature T7; source: T7 virions propagated in E. coli, purified (PEG precipitation, CsCl ultracentrifugation)
T1 sequence (looked up): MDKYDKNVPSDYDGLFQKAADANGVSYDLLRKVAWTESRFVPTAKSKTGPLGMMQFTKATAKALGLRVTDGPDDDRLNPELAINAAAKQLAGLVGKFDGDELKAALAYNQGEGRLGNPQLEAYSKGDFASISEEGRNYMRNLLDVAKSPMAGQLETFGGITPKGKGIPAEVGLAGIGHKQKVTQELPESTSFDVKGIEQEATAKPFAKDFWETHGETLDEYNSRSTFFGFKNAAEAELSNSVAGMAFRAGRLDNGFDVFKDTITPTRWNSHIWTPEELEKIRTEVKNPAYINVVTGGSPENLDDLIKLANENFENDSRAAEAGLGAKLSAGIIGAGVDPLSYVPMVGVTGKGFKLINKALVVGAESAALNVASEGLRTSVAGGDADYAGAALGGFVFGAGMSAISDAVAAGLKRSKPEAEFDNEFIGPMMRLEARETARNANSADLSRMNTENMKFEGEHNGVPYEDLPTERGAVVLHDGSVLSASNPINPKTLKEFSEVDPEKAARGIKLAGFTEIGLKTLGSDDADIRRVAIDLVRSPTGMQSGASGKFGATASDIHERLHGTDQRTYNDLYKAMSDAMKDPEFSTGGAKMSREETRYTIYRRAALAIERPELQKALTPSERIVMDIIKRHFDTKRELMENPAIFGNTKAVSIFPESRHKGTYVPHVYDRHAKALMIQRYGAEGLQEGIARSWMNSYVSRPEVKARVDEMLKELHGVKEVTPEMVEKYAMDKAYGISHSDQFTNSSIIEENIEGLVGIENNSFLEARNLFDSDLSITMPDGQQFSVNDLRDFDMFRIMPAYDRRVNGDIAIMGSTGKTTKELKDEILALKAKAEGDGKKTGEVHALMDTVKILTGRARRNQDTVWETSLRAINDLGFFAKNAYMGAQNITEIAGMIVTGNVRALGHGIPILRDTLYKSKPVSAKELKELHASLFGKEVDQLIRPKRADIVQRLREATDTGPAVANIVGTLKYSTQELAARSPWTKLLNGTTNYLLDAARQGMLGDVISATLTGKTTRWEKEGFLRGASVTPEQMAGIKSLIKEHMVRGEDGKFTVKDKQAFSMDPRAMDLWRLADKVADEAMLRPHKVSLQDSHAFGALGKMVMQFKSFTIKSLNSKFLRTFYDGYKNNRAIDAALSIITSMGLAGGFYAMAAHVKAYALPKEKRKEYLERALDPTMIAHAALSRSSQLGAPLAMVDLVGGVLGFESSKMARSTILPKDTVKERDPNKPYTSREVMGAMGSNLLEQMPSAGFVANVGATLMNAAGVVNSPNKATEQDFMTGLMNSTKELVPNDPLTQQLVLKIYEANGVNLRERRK
The data set is described as above. The note with it: both partners purified.

Data set [3] concerns the target T2, portal protein gp8 (bacteriophage T7, UniProt P03728 1-536).
T2 construct: portal protein gp8 of bacteriophage T7, as it stands in the virion; Native virion protein; also called dodecameric portal; source: T7 virions propagated in E. coli, purified (PEG precipitation, CsCl ultracentrifugation); copies: 12
T2 sequence (looked up): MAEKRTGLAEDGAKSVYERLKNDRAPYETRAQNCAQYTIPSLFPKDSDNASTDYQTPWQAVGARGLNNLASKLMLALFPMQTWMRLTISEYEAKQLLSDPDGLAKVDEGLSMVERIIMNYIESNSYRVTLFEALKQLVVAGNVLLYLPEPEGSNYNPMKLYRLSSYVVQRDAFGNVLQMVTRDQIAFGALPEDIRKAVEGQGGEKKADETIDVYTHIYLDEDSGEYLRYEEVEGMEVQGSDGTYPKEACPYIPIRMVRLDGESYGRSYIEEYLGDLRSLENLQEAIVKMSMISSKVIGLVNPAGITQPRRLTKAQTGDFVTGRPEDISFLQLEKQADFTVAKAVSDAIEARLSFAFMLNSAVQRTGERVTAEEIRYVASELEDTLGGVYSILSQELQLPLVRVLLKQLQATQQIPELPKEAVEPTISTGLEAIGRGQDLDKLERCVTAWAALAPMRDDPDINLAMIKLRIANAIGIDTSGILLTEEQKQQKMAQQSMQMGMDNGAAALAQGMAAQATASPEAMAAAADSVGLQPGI
In words: cryo-EM structure; DNA-ejected T7: purified mature T7 incubated with rough LPS (250 µg/mL) at 37°C for 3 h; entire particle asymmetric 8.2 Å; portal–tail complex 3.5 Å (six-fold). The settings on record: both partners purified.

Data set [4] deals with T3, nozzle protein gp12 (bacteriophage T7, UniProt P03747 1-794).
T3 construct: nozzle protein gp12 of bacteriophage T7, as it stands in the virion; Native virion protein; also called tail nozzle; source: T7 virions propagated in E. coli, purified (PEG precipitation, CsCl ultracentrifugation)
T3 sequence (looked up): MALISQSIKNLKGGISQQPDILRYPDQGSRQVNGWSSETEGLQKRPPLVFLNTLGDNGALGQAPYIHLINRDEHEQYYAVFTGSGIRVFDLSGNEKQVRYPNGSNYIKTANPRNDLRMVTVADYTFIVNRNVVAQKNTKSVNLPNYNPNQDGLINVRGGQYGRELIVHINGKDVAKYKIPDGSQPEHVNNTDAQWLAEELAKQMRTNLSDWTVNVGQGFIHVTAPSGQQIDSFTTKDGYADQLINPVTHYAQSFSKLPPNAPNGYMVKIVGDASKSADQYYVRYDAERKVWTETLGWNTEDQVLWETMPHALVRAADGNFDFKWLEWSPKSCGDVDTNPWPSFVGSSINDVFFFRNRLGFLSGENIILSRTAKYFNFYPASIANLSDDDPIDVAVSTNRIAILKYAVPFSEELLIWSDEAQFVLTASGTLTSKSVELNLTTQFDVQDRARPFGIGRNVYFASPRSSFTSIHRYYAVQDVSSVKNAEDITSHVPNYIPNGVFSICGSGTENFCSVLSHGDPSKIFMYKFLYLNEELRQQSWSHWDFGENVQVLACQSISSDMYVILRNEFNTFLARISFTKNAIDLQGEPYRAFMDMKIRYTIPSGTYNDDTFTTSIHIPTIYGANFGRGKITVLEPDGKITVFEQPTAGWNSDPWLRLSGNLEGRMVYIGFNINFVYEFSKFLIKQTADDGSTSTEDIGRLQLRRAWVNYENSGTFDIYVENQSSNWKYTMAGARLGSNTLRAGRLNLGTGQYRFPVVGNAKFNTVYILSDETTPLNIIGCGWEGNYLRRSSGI
The data set is described as above. The settings on record: both partners purified.

B1: core protein gp15 (natural protein, bacteriophage T7, UniProt P03725 1-747, looked up)
chain: MSKIESALQAAQPGLSRLRGGAGGMGYRAATTQAEQPRSSLLDTIGRFAKAGADMYTAKEQRARDLADERSNEIIRKLTPEQRREALNNGTLLYQDDPYAMEALRVKTGRNAAYLVDDDVMQKIKEGVFRTREEMEEYRHSRLQEGAKVYAEQFGIDPEDVDYQRGFNGDITERNISLYGAHDNFLSQQAQKGAIMNSRVELNGVLQDPDMLRRPDSADFFEKYIDNGLVTGAIPSDAQATQLISQAFSDASSRAGGADFLMRVGDKKVTLNGATTTYRELIGEEQWNALMVTAQRSQFETDAKLNEQYRLKINSALNQEDPRTAWEMLQGIKAELDKVQPDEQMTPQREWLISAQEQVQNQMNAWTKAQAKALDDSMKSMNKLDVIDKQFQKRINGEWVSTDFKDMPVNENTGEFKHSDMVNYANKKLAEIDSMDIPDGAKDAMKLKYLQADSKDGAFRTAIGTMVTDAGQEWSAAVINGKLPERTPAMDALRRIRNADPQLIAALYPDQAELFLTMDMMDKQGIDPQVILDADRLTVKRSKEQRFEDDKAFESALNASKAPEIARMPASLRESARKIYDSVKYRSGNESMAMEQMTKFLKESTYTFTGDDVDGDTVGVIPKNMMQVNSDPKSWEQGRDILEEARKGIIASNPWITNKQLTMYSQGDSIYLMDTTGQVRVRYDKELLSKVWSENQKKLEEKAREKALADVNKRAPIVAATKAREAAAKRVREKRKQTPKFIYGRKE
notes: core protein gp15 of bacteriophage T7, as it stands in the mature virion; Eight-fold ring in the core of mature T7; source: T7 virions propagated in E. coli, purified (PEG precipitation, CsCl ultracentrifugation)
B1: the “stoichiometry N” value in data set [1] worked out at 8. In data set [2], the binding result is recorded as “binds”.

B2: adaptor protein gp11 (natural protein, bacteriophage T7, UniProt P03746 1-196, looked up)
chain: MRSYDMNVETAAELSAVNDILASIGEPPVSTLEGDANADAANARRILNKINRQIQSRGWTFNIEEGITLLPDVYSNLIVYSDDYLSLMSTSGQSIYVNRGGYVYDRTSQSDRFDSGITVNIIRLRDYDEMPECFRYWIVTKASRQFNNRFFGAPEVEGVLQEEEDEARRLCMEYEMDYGGYNMLDGDAFTSGLLTR
notes: adaptor protein gp11 of bacteriophage T7, as it stands in the virion; Native virion protein; source: T7 virions propagated in E. coli, purified (PEG precipitation, CsCl ultracentrifugation); copies: 12
Take B2: the binding result in data set [3] and in data set [4] was “binds” in each case. Further, the “stoichiometry N” value in data set [1] came out at 12.
